Patent publication US20250313641A1 (Amgen, published 2025)
Where a chain is given by its changes, count along the chain named. In names and notes the source's numbering stands. Each block holds one binder with its values, some of them ahead of it.

Columns and labels:
[1] = molecular target: T1, cynomolgus monkey IL-2 receptor (IL-2R) on cyno PBMC subsets (cynomolgus monkey, UniProt Q38J85 27-551; A0A2K5VGJ6 23-369); assay: Flow cytometry on cynomolgus PBMCs gated on CD4+CD25+CD127lo T-regs; detection with anti-human IgG-PE; gMFI as fold over background
T1 construct: whole, on cells; Endogenous receptor on primary cynomolgus PBMC subsets (monkeys of Mauritian origin); CD25+ T-regs also carry the alpha chain; also called cyno IL-2R; IL2R protein of Cynomolgus macaque
T1 sequence (looked up) 1: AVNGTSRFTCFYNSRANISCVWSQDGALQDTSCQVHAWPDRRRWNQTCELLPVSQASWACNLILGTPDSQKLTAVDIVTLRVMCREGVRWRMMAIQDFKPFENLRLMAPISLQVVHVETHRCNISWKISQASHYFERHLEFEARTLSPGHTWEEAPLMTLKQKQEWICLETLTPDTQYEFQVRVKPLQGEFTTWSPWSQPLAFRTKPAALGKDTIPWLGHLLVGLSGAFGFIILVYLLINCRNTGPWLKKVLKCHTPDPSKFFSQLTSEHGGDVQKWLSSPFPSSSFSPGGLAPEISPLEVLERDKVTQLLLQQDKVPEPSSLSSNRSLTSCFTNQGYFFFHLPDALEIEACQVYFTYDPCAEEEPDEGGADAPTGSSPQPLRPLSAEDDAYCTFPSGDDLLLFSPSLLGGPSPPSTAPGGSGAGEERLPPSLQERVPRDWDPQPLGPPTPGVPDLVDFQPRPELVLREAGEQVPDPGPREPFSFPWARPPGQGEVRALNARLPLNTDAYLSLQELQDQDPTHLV
T1 sequence (looked up) 2: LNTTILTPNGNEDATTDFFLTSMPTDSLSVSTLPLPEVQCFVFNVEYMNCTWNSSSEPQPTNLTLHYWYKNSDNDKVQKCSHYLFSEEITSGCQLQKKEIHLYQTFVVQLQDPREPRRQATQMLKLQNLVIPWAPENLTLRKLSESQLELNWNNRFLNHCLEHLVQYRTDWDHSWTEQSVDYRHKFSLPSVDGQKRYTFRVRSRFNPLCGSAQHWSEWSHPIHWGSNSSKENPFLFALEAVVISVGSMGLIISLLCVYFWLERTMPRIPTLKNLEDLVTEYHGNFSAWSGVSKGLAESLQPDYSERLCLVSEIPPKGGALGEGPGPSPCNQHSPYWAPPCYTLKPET

[2] = molecular target: T2, human IL-2 receptor (IL-2R) on human PBMC subsets (human, UniProt P14784 27-551; P31785 23-369); assay: cell-based or functional assay
T2 sequence 1: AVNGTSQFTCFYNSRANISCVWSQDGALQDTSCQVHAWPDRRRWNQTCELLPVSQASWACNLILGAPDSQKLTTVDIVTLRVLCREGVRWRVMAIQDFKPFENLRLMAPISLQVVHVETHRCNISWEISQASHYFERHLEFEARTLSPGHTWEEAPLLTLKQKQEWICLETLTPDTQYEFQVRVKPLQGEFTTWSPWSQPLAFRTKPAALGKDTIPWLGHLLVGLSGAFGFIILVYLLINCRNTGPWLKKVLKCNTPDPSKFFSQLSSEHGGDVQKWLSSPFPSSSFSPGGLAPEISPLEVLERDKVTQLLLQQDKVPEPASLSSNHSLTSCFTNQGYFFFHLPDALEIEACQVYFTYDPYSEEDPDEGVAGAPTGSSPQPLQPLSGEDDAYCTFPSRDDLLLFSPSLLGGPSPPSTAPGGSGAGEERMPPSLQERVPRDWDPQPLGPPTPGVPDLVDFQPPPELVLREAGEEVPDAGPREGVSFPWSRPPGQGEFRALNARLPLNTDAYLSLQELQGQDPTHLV
T2 sequence 2: T1 sequence (looked up) 2 with A14T, T16A, S22T, R141H, S228T, P326A

[3] = molecular target: T2, human IL-2 receptor (IL-2R) on human …; assay: cell-based or functional assay; remark: listed apart in the source
[4] = molecular target: T2, human IL-2 receptor (IL-2R) on human …; assay: Flow cytometry on human PBMCs gated on CD4+CD25+CD127lo T-regs; detection with goat F(ab')2 anti-human IgG-PE; gMFI as fold over background
Protocol: (§1) All washes and dilutions of cells, antibodies, and reagents were performed using flow buffer (1×PBS, 1% BSA, 0.1% NaN3, pH 7.4). All incubations were performed at 4° C. or on ice. Freshly thawed PBMCs were seeded at 100,000 cells/well in a 96-well round bottom plate (Corning) and incubated for 30 minutes with serially diluted test articles in a total volume of 50 μL. Cells were washed twice with 200 μL flow buffer and subsequently stained with a 0.625 μg/mL Goat F (ab′) 2 Anti-Human IgG-PE (Southern Biotech) secondary detection antibody. Fluorescently conjugated anti-CD3 (OKT3), CD4 (OKT4), CD8 (RPA-T8), CD25 (M-A251), CD127 (A019D5), and CD56 (HCD56) antibodies (BioLegend) were also included at 1:20 dilution to enable the characterization of T-cell and NK cell populations. Following a 30-minute incubation, and 2 more washes, the cells were resuspended in a final volume of 120 μL of flow buffer containing 7-AAD viability dye. The cells were analyzed on a BD FACSCelesta™, maximum events were collected, and geometric mean fluorescence intensity was plotted as a fold-over-background (cells incubated with secondary detection antibody and cell lineage marker stains only).
(§2) Cell binding was determined by flow cytometry and reported as geometric mean fluorescent intensity (gMFI) over the gMFI of cells stained only with secondary detection antibody.

[5] = molecular target: T2, human IL-2 receptor (IL-2R) on human …; assay: cell-based or functional assay; remark: listed apart in the source
[6] = molecular target: T2, human IL-2 receptor (IL-2R) on human …; assay: Flow cytometry on human PBMCs gated on CD3-CD56+ NK cells; detection with goat F(ab')2 anti-human IgG-PE; gMFI as fold over background
Protocol: as §1, §2

[7] = molecular target: T1, cynomolgus monkey IL-2 receptor (IL-2R) …; assay: cell-based or functional assay
[8] = molecular target: T1, cynomolgus monkey IL-2 receptor (IL-2R) …; assay: cell-based or functional assay; remark: listed apart in the source
[9] = molecular target: T1, cynomolgus monkey IL-2 receptor (IL-2R) …; assay: Flow cytometry on cynomolgus PBMCs gated on CD3-CD159a+ NK cells; detection with anti-human IgG-PE; gMFI as fold over background
[10] = molecular target: T2, human IL-2 receptor (IL-2R) on human …; assay: Flow cytometry on human PBMCs gated on CD4+ T-cells; detection with goat F(ab')2 anti-human IgG-PE; gMFI as fold over background
Protocol: as §1, §2

[11] = molecular target: T2, human IL-2 receptor (IL-2R) on human …; assay: Flow cytometry on human PBMCs gated on CD8+ T-cells; detection with goat F(ab')2 anti-human IgG-PE; gMFI as fold over background
Protocol: as §1, §2

[12] = molecular target: T2, human IL-2 receptor (IL-2R) on human …; assay: cell-based or functional assay; remark: listed apart in the source

EC50 (read off the curve) [1]: ~8 nM
pSTAT5 (Human) EC50 [nM], CD4^+ T-cell [2]: 34.9 nM
pSTAT5 (Human) EC50 [nM], CD4^+CD25^+ T-regs [2]: 10.7 nM
pSTAT5 (Human) EC50 [nM], CD8^+ T-cell [2]: 21.5 nM
pSTAT5 (Human) EC50 [nM], CD4^+ T cells [3]: 22.9 nM
pSTAT5 (Human) EC50 [nM], CD8^+ T cells [3]: 15.5 nM
pSTAT5 (Human) EC50 [nM], NK cells [3]: 8.77 nM
pSTAT5 (Human) EC50 [nM], T-regs [3]: 13.1 nM
EC50 (read off the curve) [4]: ~10 nM
Ki67 (Human) EC50 [nM], CD4^+ T cells [5]: 13.2 nM
Ki67 (Human) EC50 [nM], CD8^+ T cells [5]: 5.17 nM
Ki67 (Human) EC50 [nM], NK cells [5]: 7.34 nM
Ki67 (Human) EC50 [nM], T-regs [5]: 0.81 nM
EC50 (read off the curve) [6]: ~2 nM
pSTAT5 (Cyno) EC50 [nM], CD4^+ T-cell [7]: 7.72 nM
pSTAT5 (Cyno) EC50 [nM], CD4^+CD25^+ T-regs [7]: 5.37 nM
pSTAT5 (Cyno) EC50 [nM], CD8^+ T-cell [7]: 3.31 nM
Ki67 (Cyno) EC50 [nM], CD4^+ T cells [8]: 14.7 nM
Ki67 (Cyno) EC50 [nM], CD8^+ T cells [8]: 14.8 nM
Ki67 (Cyno) EC50 [nM], NK cells [8]: 5.97 nM
Ki67 (Cyno) EC50 [nM], T-regs [8]: 1.25 nM
EC50 (read off the curve) [9]: ~2 nM
EC50 (read off the curve) [10]: ~30 nM
EC50 (read off the curve) [11]: ~20 nM
Ki67 (Human) EC50 [nM], CD4^+ T-cell [12]: 23.7 nM
Ki67 (Human) EC50 [nM], CD4^+CD25^+ T-regs [12]: 9.26 nM
Ki67 (Human) EC50 [nM], CD8^+ T-cell [12]: 25.1 nM
B1: HCAb1 (bispecific antibody, IgG1)
heavy 1: not shown
heavy 2: QVQLVESGGGLVKPGGSLRLSCAASGFTFSDYYMSWIRQAPGKGLEWVSYISSSGSTIYYADSVKGRFTISRDNAKNSLYLQMNSLRAEDTAVYYCARGDAVSITGDYRGQGTLVTVSSGGGGDKTHTCPPCPAPELLGGPSVFLFPPKPKDTLMISRTPEVTCVVVDVSHEDPEVKFNWYVDGVEVHNAKTKPCEEQYGSTYRCVSVLTVLHQDWLNGKEYKCKVSNKALPAPIEKTISKAKGQPREPQVYTLPPSRKEMTKNQVSLTCLVKGFYPSDIAVEWESNGQPENNYKTTPPVLKSDGSFFLYSKLTVDKSRWQQGNVFSCSVMHEALHNHYTQKSLSLSPGK
notes: Heavy-chain antibody without light chains, made of two different heavy chains; The IgG1-derived Fc carries SEFL2.2 mutations (R292C, N297G, V302C) and charge-pair substitutions; also called anti-IL2RBG heavy-chain antibody

pSTAT5 (Human) EC50 [nM], CD4^+ T-cell [2]: 44.6 nM
pSTAT5 (Human) EC50 [nM], CD4^+CD25^+ T-regs [2]: 13.2 nM
pSTAT5 (Human) EC50 [nM], CD8^+ T-cell [2]: 24 nM
pSTAT5 (Cyno) EC50 [nM], CD4^+ T-cell [7]: 9.36 nM
pSTAT5 (Cyno) EC50 [nM], CD4^+CD25^+ T-regs [7]: 4.29 nM
pSTAT5 (Cyno) EC50 [nM], CD8^+ T-cell [7]: 3.13 nM
Ki67 (Human) EC50 [nM], CD4^+ T-cell [12]: 23.9 nM
Ki67 (Human) EC50 [nM], CD4^+CD25^+ T-regs [12]: 14.6 nM
Ki67 (Human) EC50 [nM], CD8^+ T-cell [12]: 36.5 nM
B2: HCAb2 (bispecific antibody, human IgG4 S228P, F234A L235A)
heavy 1: QVQLQESSPGLVKPSETLSLTCTVSGGSISSSNWWSWVRQPPGKGLEWIGEISHSGSTNYNPSLKSRVTISVDKSKNQFSLRLSSVTAADTAVYFCGRGSWELTDAFDIRGQGTLVTVSSESKYGPPCPPCPAPEAAGGPSVFLFPPKPKDTLMISRTPEVTCVVVDVSQEDPEVQFNWYVDGVEVHNAKTKPREEQFNSTYRVVSVLTVLHQDWLNGKEYKCKVSNKGLPSSIEKTISKAKGQPREPQVYTLPPSQEEMTKNQVSLSCAVKGFYPSDIAVEWESNGQPENNYKTTPPVLDSDGSFFLVSRLTVDKSRWQEGNVFSCSVMHEALHNHYTQKSLSLSLGK
heavy 2: QVQLVESGGGLVKPGGSLRLSCAASGFTFSDYYMSWIRQAPGKGLEWVSYISSSGSTIYYADSVKGRFTISRDNAKNSLYLQMNSLRAEDTAVYYCARGDAVSITGDYRGQGTLVTVSSESKYGPPCPPCPAPEAAGGPSVFLFPPKPKDTLMISRTPEVTCVVVDVSQEDPEVQFNWYVDGVEVHNAKTKPREEQFNSTYRVVSVLTVLHQDWLNGKEYKCKVSNKGLPSSIEKTISKAKGQPREPQVYTLPPSQEEMTKNQVSLWCLVKGFYPSDIAVEWESNGQPENNYKTTPPVLDSDGSFFLYSRLTVDKSRWQEGNVFSCSVMHEALHNHYTQKSLSLSLGK
